B1: EEHEE_rd4_0003 (parent)
chain: KKVTINGVEIKFNNPEEAVKFALELAKRLNLRIEFHGDQIKIE

Variants of: B1
Assay: folding stability dG (cDNA display proteolysis); higher = more stable
Conditions: PBS, room temperature

Row | Variant | folding stability dG [kcal/mol]
1 | KKVTINGVEIKFNNPEEAFKFALELAKRLNLRIEFHGDQIKIE [V19F] | 2.75
2 | KKVTINGVEIKFNNPEEAYKFALELAKRLNLRIEFHGDQIKIE [V19Y] | 2.85
3 | KKVTINGVEIKFNVPEEAVKFALELAKRLNLRIEFHGDQIKIE [N14V] | 2.36
4 | KKVTINGVEIKFNIPEEAVKFALELAKRLNLRIEFHGDQIKIE [N14I] | 2.36
5 | KKVTINGVEIKFNRPEEAVKFALELAKRLNLRIEFHGDQIKIE [N14R] | 2.44
6 | KKVTINGVEIKFNCPEEAVKFALELAKRLNLRIEFHGDQIKIE [N14C] | 2.98
7 | KKVTINGVEIKFNNPEEAVKFALELAKRLNLRLEFHGDQIKIE [I33L] | 2.35
8 | KKVTINGVEIKFNNPEEAVKFALELAKRLNLREEFHGDQIKIE [I33E] | 0.529
9 | KKVTINGVEIKFNNPEEAVKFWLELAKRLNLRIEFHGDQIKIE [A22W] | 2.68
10 | TKVTINGVEIKFNNPEEAVKFALELAKRLNLRIEFHGDQIKIE [K1T] | 3.14
11 | HKVTINGVEIKFNNPEEAVKFALELAKRLNLRIEFHGDQIKIE [K1H] | 2.89
12 | KKVTINGVEISFNNPEEAVKFALELAKRLNLRIEFHGDQIKIE [K11S] | 2.72
13 | KKVTINGVEIKFNNPEEAVKFALELAKRLNLRIEFHGDQIKID [E43D] | 2.5
14 | KKVTINGVEIKFNNPEEAVKFALELAKRLNLRIEFHGDQIKIH [E43H] | 2.82
15 | KKVTINGVEIKFNNPEEAVKFALELAKRLNLRIEFHGDQIKIM [E43M] | 3.13
16 | KKVTINGVEIKFNNPEEAVKFALELAKRLNLRIEFHGDQIKIL [E43L] | 3.23
17 | KKVTINGVEIKFNNPEEAVKFALELAKRLNLRIEFHGDQIKIC [E43C] | 3.85
18 | KKVTINGVEIKFNNPEEAVKFALELAKRLNLRIFFHGDQIKIE [E34F] | 2.74
19 | KKVTINGVEIKFNNPEEAVKFALELAKRLNLRIMFHGDQIKIE [E34M] | 2.47
20 | KKVTINGVEIKFNNPEEAVKFALELAKRLNLRIGFHGDQIKIE [E34G] | 1.96

Row | Variant | folding stability dG [kcal/mol]
21 | KKVTINGVEIKFNNPEEAVKFALELAKRLNLRILFHGDQIKIE [E34L] | 2.49
22 | KKVTINGVEIKFNNPEEAVKFALELAKRLNLRIVFHGDQIKIE [E34V] | 2.73
23 | KKVTINGVEIKFNNPEEAVKFALELAKRLNLRIAFHGDQIKIE [E34A] | 2.29
24 | KKVTINGVEIKFNNPEEAVKFALELAKRLNLRIEFNGDQIKIE [H36N] | 2.58
25 | KKVTINGVEIKFNNPEEAVKFALELAKRLNLRIEFKGDQIKIE [H36K] | 2.53
26 | KKVTINGVEIKFNNPEEAVKFALELAKRLNLRIEFHGDQAKIE [I40A] | 1.49
27 | KKVTINGVEIKFNNPEEAVKFALELAKRLNLRIEFHGDQSKIE [I40S] | 1.43
28 | KKVTINGVEIKFNNPEEAVKFALELAARLNLRIEFHGDQIKIE [K27A] | 2.72
29 | KKVTINGVEIKFNNPEEAVKFALELAIRLNLRIEFHGDQIKIE [K27I] | 2.4
30 | KKVTINGVEIKFNNPEEAVKFALELAQRLNLRIEFHGDQIKIE [K27Q] | 2.47
31 | KKVTINGVEIKFNNPEEAVKFALELAFRLNLRIEFHGDQIKIE [K27F] | 2.63
32 | KKVTINGVEIKFNNPEEAVKFALELAMRLNLRIEFHGDQIKIE [K27M] | 2.57
33 | KKVTINGVEIKFNNPEEAVKFALELAHRLNLRIEFHGDQIKIE [K27H] | 2.48
34 | KKVTINGVEIKFNNPEEAVKFALELATRLNLRIEFHGDQIKIE [K27T] | 2.52
35 | KKVTINGVEWKFNNPEEAVKFALELAKRLNLRIEFHGDQIKIE [I10W] | 2.55
36 | KKVTINGVEAKFNNPEEAVKFALELAKRLNLRIEFHGDQIKIE [I10A] | 1.65
37 | KKVTINGVECKFNNPEEAVKFALELAKRLNLRIEFHGDQIKIE [I10C] | 3.45
38 | KKVTINGVEIKFNNPEEAVKFALELAKRLNLRIEFHGDSIKIE [Q39S] | 2.75
39 | KKVTINGVEIKFNNPEEAVKKALELAKRLNLRIEFHGDQIKIE [F21K] | 1.66
40 | KKVTINGVEIKFNNPEEAVKIALELAKRLNLRIEFHGDQIKIE [F21I] | 2.03

Row | Variant | folding stability dG [kcal/mol]
41 | KKVTINGVEIKFNNPEEAVKDALELAKRLNLRIEFHGDQIKIE [F21D] | 0.978
42 | KKVTINGVEIKFNNPEEAVKLALELAKRLNLRIEFHGDQIKIE [F21L] | 2.03
43 | KKVTINGVEIKFNNPEEAVKGALELAKRLNLRIEFHGDQIKIE [F21G] | 1.16
44 | KKVTINGVEIKFNNPEEAVKFAIELAKRLNLRIEFHGDQIKIE [L23I] | 2.57
45 | KKVTINGVEIKFNNPEEAVKFAQELAKRLNLRIEFHGDQIKIE [L23Q] | 2.13
46 | KKVTINGVEIKFNNPEEAVKFAPELAKRLNLRIEFHGDQIKIE [L23P] | 0.007
47 | KKVTINGVEIKFNNPEEAVKFALELAKRLNLRIEFHGDQIKYE [I42Y] | 1.6
48 | KKVTINGVEIKFNNPEEAVKFALELAKRLNLRIEFHGDQIKSE [I42S] | 1.47
49 | KKVTINGVEIKFNNPEEAVKFALELAKRLNLRIEFHGDQIKME [I42M] | 2.25
50 | KKVTINGVEIKFNNPEEAVKFALELAKRLNLRIEFHGDQIKPE [I42P] | 1.27
51 | KKVTINGVEIKFNNPEEAVKFALELAKRLNLRIEFHGDQIKFE [I42F] | 2.22
52 | KKVTINGVEIKKNNPEEAVKFALELAKRLNLRIEFHGDQIKIE [F12K] | 1.09
53 | KKVTINGVEIKWNNPEEAVKFALELAKRLNLRIEFHGDQIKIE [F12W] | 2.14
54 | KKVTINGVEIKANNPEEAVKFALELAKRLNLRIEFHGDQIKIE [F12A] | 1.48
55 | KKVTINGVVIKFNNPEEAVKFALELAKRLNLRIEFHGDQIKIE [E9V] | 2.94
56 | KKVTINGVFIKFNNPEEAVKFALELAKRLNLRIEFHGDQIKIE [E9F] | 2.53
57 | KKVTINGVKIKFNNPEEAVKFALELAKRLNLRIEFHGDQIKIE [E9K] | 2.08
58 | KKVTINGVEIKFNNPEEAVKFALELAKRLNLSIEFHGDQIKIE [R32S] | 2.17
59 | KKVTINGVEIKFNNPEEAVKFALELAKRLNLVIEFHGDQIKIE [R32V] | 2.33

Source: the MegaScale stability set (Tsuboyama et al. 2023)
